These results are taken from patent US20260007756A1, “COMPOUND AND USE THEREOF” (COHERENT BIOPHARMA (SUZHOU) LIMITED, priority 2022, published 2026).

In one series the test system is VCaP. Kind of series: Expansion inhibition of tumor cells (Example 9, CellTiter-Glo). The class given is cell-based, human. As to conditions: 72 h. The text has this: (§1) Information on cell lines: LNCaP (human prostate cancer cell) and VCaP (human prostate cancer cell)
(§2) Negative and blank controls were set.

The test system of another series is LNCaP. The series is described as above. It is filed as cell-based, human. As to conditions: 72 h.
From the text: as §1, §2

For another series, the system named is 22RV1. The class given is cell-based, human. As to conditions: 22RV1, 72 h, CellTiter-Glo.
From the text: as §2

In a further series the test system is MDA-MB-231. It is filed as cell-based, human. As to conditions: MDA-MB-231, 72 h, CellTiter-Glo.
From the text: as §2

The test system of a further series is C4-2. As to conditions: C4-2, 72 h, CellTiter-Glo.
A further series in a line: Plasma stability study 2. As to conditions: mouse plasma, 37° C. It is filed as in vitro ADME.
The subject of series [1] is sulfatase. As to conditions: PBS pH 7.4, 37° C.
Protocol: (§3) • 1) The compounds were formulated into 500 μg/mL stock solutions with PBS (pH 7.4); • 2) 60 μL of 500 μg/mL compound stock solution was added to 420 μL PBS (pH 7.4), before 60 μL of 0.2 U/mL plasmin (or 60 μL of 0.5 U/mL sulfatase) was added, and the mixture was well mixed by gentle shaking; • 3) The cleavage reaction system in step 2) was transferred to a thermostatic incubator at 37° C. for 0 h, 1 h, 2 h, 4 h, or 24 h of incubation. Samples were taken and loaded at various time points for LC-MS analysis.
The nature of another series: Solubility study in PBS. The class given is physicochemical. As to conditions: aqueous buffer, thermodynamic from solid; PBS (pH 7.2 to 7.4); read-out: Solubility, concentration. As for the experimental part:
The mixture was vortexed for 2 min until the solid was dissolved. The solubility was calculated as: C=m/V, C: concentration, m: sample weight, V: PBS total volume.

The subject of series [2] is sulfatase. Kind of series: in vitro. As to conditions: isolated sulfatase, pH 7.4.
Protocol: as §3

Converted amounts (≈) assume the structure as drawn. Like-named read-outs stand apart in the source and are kept apart here.

Protocol for C4-2: Cells were prepared in advance, trypsinized, collected, counted, diluted to 1.5×10^4 cells/mL in a complete cell culture medium, and plated in 96-well plates. The diluted cell suspension was added at 100 μL/well, and negative and blank control wells were set on each plate. The 96-well plates with the added cells were incubated overnight at 37° C. in a 5% CO2 incubator.
Samples were serially diluted with medium (serially 3-fold diluted from 10 μM) to 9 concentrations. The medium in the plates was discarded, and the drug solutions were added at 100 μL per well to a 96-well plate in triplicate. Negative and blank controls were set. The plates were incubated at 37° C. for 72 h in a 5% CO2 incubator.
The CellTiter-Glo buffer was thawed and warmed to room temperature, and the CellTiter-Glo substrate was warmed to room temperature. The CellTiter-Glo buffer was added to the flask containing CellTiter-Glo substrate to dissolve the substrate, thereby preparing a CellTiter-Glo working solution, which was then vortexed slowly to complete dissolution. The cell culture plates were equilibrated at room temperature for 30 min, before the CellTiter-Glo working solution was added at 50 μL/well (about half the volume of cell culture medium in each well). The plate was covered by aluminum foil to keep out of light. The culture plate was shaken on an orbital shaker for 2 min to induce cell lysis. The culture plate was left to stand at room temperature for 10 min to stabilize the luminescence signals. The luminescence signal was detected on a microplate reader (Molecular Devices SpectraMax iD5).
Four-parameter curves were fitted using GraphPad Prism 8.0.2 to give IC50 values.
Protocol for Plasma stability study 2: • 1) The conjugate compounds were prepared into 1 mg/mL stock solutions with 0.1% TFA-acetonitrile water (1:1); • 2) 10 μL of 1 mg/mL compound stock solution was added into 90 μL of fresh plasma, and the mixture was well mixed by gentle shaking, and transferred to a thermostatic incubator at 37° C. for 0 h, 0.5 h, 1 h, 2 h, 4 h, 6 h, or 24 h of incubation; • 3) at the time points, samples were taken out and 300 μL of methanol solution (containing 10 ng/ml of terfenadine) was added for protein precipitation; • 4) the mixture was centrifuged (13 min, 4° C., 12000 rpm) and the supernatant was collected, and preserved in a −80° C. refrigerator; after collection, the samples were loaded for LC-MS analysis.

In the case of `Cc1ncsc1-c1ccc(C(C)NC(=O)C2CC(O)CN2C(=O)C(NC(=O)COCCCOCCNC(=O)CC2N=C(c3ccc(Cl)cc3)c3c(sc(C)c3C)-n3c(C)nnc32)C(C)(C)C)cc1` (stereo not drawn) [CR202ES, ARV-771], the IC50 in the series on VCaP (Homo sapiens) was 0.0109 µM; in the series on LNCaP (Homo sapiens), 0.0087 µM.
Turning to `CC[C@@H]1C(=O)N(C)c2cnc(Nc3ccc(-c4cn([C@H]5CC[C@@H](N(CCOCCC#Cc6cccc7c6CN(C6CCC(=O)NC6=O)C7=O)C(=O)OC(Cc6cn(CCOCCOCCNC(=O)COCCOCCn7cc(C[C@H](NC(=O)[C@H](CCCCN)NC(=O)[C@H](CC(=O)O)NC(=O)[C@H](CC(=O)O)NC(=O)Cc8ccc(CNC(=O)NCCCC[C@H](NC(=O)N[C@@H](CCC(=O)O)C(=O)O)C(=O)O)cc8)C(=O)N[C@@H](CCCCNC(=O)CC[C@H](NC(=O)c8ccc(NCc9cnc%10[nH]c(N)nc(=O)c%10n9)cc8)C(=O)O)C(N)=O)nn7)nn6)c6ccc(OS(=O)(=O)O)c([N+](=O)[O-])c6)CC5)nn4)cc3OC)nc2N1C1CCCC1` (stereo partly drawn) [CR202W1], the results for the IC50 in the series with 22RV1, with MDA-MB-231 and with C4-2 were 0.112 µM, 0.12 µM and 0.0432 µM, respectively. In addition, the “CR20274 release rate (actual release/theoretical release)” value in “Plasma stability study 2” (0 h) was determined as 0.68%; in the series “Plasma stability study 2” (0.5 h) it was 0.63%; in “Plasma stability study 2” (1 h) it was 0.83%; in the series “Plasma stability study 2” (2 h) it was 0.80%; in the series “Plasma stability study 2” (4 h), 0.96%; in the series “Plasma stability study 2” (6 h), 0.88%. Moreover, in “Plasma stability study 2” (24 h), the “CR20274 release rate (actual release/theoretical release)” value is on record as 2.82%. For the same molecule, the “Residual rate of principal component” value in the series “Plasma stability study 2” (0 h) is on record as 105.30%; in “Plasma stability study 2” (24 h) it was −2.67%. The remaining at 0.5 h, 100 μg/mL in “Plasma stability study 2” (0.5 h, read-out: Residual rate of principal component) is 89.4%. The remaining at 1 h, 100 μg/mL in the series “Plasma stability study 2” (1 h, read-out: Residual rate of principal component) is 103%. In the series “Plasma stability study 2” (2 h, read-out: Residual rate of principal component), the remaining at 2 h, 100 μg/mL came out at 105%. In addition, in “Plasma stability study 2” (4 h, read-out: Residual rate of principal component), the remaining at 4 h, 100 μg/mL came to 108%. Moreover, the remaining at 6 h, 100 μg/mL in the series “Plasma stability study 2” (6 h, read-out: Residual rate of principal component) is 84.8%. For the same molecule, the “CR20274 release rate of compounds after cleavage” value came to 0% in the series with sulfatase [1] (0 h); 9% in the series with sulfatase [1] (1 h); 15% in the series with sulfatase [1] (2 h); 27% in the series on sulfatase [1] (4 h); 56% in the series with sulfatase [1] (24 h). For the same molecule, the “Principal component residue of compounds after cleavage” value with sulfatase [1] (0 h) came out at 97%. Moreover, the solubility at 2 min in the series “Solubility study in PBS” was 8100 µg/mL (≈ 2650 µM). In addition, the remaining at 1 h, 55.6 µg/mL in the series with sulfatase [2] was found to be 89%. Also, the remaining at 2 h, 55.6 µg/mL with sulfatase [2] was found to be 80%. Besides, the remaining at 4 h, 55.6 µg/mL in the series with sulfatase [2] came out at 69%. The remaining at 24 h, 55.6 µg/mL in the series on sulfatase [2] was determined as 37%.
`Cc1ncsc1-c1ccc(CNC(=O)[C@@H]2C[C@@H](OC(=O)OCc3ccc(NC(=O)[C@H](CCCNC(N)=O)NC(=O)[C@@H](NC(=O)COCCOCCn4cc(C[C@H](NC(=O)[C@H](CCCCN)NC(=O)[C@H](CC(=O)O)NC(=O)[C@H](CC(=O)O)NC(=O)Cc5ccc(CNC(=O)NCCCC[C@H](NC(=O)N[C@@H](CCC(=O)O)C(=O)O)C(=O)O)cc5)C(=O)N[C@@H](CCCCNC(=O)CC[C@H](NC(=O)c5ccc(NCc6cnc7[nH]c(N)nc(=O)c7n6)cc5)C(=O)O)C(N)=O)nn4)C(C)C)cc3)CN2C(=O)[C@@H](NC(=O)CCCCCCCCCCNC(=O)c2cc3c(cc2CS(C)(=O)=O)-c2cn(C)c(=O)c4[nH]cc(c24)CN3c2ncc(F)cc2F)C(C)(C)C)cc1` [CR202W8]: the figures for the IC50 in the series with VCaP and in the series with LNCaP were 0.0027 µM and 0.0053 µM, respectively.
Turning to `Cc1ncsc1-c1ccc(CNC(=O)[C@@H]2C[C@@H](O)CN2C(=O)[C@@H](NC(=O)COCCCCOc2ccc(-c3ccc(N4C(=S)N(c5ccc(C#N)c(C(F)(F)F)c5)C(=O)C4(C)C)cc3)cc2)C(C)(C)C)cc1` [CR202Z5, ARCC-4], the IC50 is 0.183 µM with VCaP (Homo sapiens) and 0.373 µM with LNCaP (Homo sapiens).
As for `Cc1ncsc1-c1ccc([C@H](CC(=O)N2CCC(N3CCC(C#Cc4ccc(C(=O)NC5C(C)(C)C(Oc6ccc(C#N)c(Cl)c6)C5(C)C)cc4)CC3)CC2)NC(=O)[C@@H]2C[C@@H](O)CN2C(=O)[C@@H](NC(=O)C2(F)CC2)C(C)(C)C)cc1` (stereo partly drawn) [CR202Z9, ARD-69], the IC50 was 0.0124 µM in the series with VCaP and 0.418 µM in the series with LNCaP.
